{
  "source": "patent US20200085917A1",
  "key": {"[1]": {"target": "T1, Acsl6_IPI:IPI00123390.8 (mouse) (UniProt Q91WC3)", "T1 sequence (looked up)": "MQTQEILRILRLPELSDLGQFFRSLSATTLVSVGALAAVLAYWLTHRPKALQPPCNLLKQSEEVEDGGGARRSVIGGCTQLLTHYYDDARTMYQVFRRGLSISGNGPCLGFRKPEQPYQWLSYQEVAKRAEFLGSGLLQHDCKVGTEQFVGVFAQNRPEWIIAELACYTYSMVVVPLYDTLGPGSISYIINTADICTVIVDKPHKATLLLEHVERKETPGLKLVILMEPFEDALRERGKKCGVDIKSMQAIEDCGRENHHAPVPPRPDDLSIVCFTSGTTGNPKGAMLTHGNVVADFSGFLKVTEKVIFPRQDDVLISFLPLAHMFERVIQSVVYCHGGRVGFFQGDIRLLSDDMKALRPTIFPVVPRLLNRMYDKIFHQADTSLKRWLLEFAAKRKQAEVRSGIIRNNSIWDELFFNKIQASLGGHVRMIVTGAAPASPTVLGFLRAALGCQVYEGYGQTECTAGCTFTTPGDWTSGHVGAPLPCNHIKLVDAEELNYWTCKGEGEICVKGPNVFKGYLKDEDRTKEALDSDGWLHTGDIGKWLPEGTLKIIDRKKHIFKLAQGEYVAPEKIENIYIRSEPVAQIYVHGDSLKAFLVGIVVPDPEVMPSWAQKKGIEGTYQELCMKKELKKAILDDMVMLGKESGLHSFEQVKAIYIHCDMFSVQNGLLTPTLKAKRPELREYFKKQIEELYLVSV", "test": "GST pull-down, LC-MS/MS"}, "[2]": {"target": "Cend1_IPI:IPI00122826.1 (mouse) (UniProt Q9JKC6)", "sequence (Q9JKC6 whole entry)": "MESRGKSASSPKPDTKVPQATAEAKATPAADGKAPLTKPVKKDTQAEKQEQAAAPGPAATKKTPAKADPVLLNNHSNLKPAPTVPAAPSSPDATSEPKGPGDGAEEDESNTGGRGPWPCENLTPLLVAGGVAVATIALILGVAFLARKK", "test": "GST pull-down, LC-MS/MS"}, "[3]": {"target": "T2, Cplx2_IPI:IPI00111501.1 (mouse) (UniProt P84086)", "T2 sequence (looked up)": "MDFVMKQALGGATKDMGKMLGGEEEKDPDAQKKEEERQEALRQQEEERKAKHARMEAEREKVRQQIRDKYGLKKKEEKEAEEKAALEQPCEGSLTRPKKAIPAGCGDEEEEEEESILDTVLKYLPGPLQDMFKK", "test": "GST pull-down, LC-MS/MS"}, "[4]": {"target": "T3, Hmgcl_IPI:IPI00127625.1 (mouse) (UniProt P38060)", "T3 sequence (looked up)": "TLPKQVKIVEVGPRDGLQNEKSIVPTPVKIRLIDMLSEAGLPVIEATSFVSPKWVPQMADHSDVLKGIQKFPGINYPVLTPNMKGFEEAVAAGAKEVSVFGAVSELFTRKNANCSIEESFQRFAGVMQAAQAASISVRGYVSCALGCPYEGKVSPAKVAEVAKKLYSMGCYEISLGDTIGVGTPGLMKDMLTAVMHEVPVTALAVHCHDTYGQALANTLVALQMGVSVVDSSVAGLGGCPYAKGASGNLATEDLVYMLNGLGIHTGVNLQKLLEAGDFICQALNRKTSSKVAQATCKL", "test": "GST pull-down, LC-MS/MS"}, "[5]": {"target": "Hspa9_IPI:IPI00880839.1 (mouse) (UniProt P38647)", "sequence (P38647 47-679 limits assumed)": "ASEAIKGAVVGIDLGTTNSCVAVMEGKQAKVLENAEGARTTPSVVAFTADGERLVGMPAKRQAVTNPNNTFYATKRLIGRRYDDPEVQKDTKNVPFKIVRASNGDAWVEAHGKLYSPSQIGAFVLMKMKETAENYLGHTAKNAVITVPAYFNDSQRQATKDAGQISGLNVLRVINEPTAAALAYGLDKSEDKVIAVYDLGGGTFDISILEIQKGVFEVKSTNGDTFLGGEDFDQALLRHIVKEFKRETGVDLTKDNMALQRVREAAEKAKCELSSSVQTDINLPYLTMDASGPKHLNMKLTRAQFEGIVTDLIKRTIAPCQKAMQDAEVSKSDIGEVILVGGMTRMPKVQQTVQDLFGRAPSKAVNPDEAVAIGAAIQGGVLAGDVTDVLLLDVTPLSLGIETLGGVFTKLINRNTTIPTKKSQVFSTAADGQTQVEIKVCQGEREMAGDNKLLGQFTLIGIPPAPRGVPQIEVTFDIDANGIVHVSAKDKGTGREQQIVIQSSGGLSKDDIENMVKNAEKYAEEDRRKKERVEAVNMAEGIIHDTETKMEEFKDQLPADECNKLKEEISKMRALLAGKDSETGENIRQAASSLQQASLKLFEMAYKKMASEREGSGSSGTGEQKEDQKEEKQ", "test": "GST pull-down, LC-MS/MS"}, "[6]": {"target": "T4, Sfxn5_IPI:IPI00221602.1 (mouse) (UniProt Q925N0)", "T4 sequence (looked up)": "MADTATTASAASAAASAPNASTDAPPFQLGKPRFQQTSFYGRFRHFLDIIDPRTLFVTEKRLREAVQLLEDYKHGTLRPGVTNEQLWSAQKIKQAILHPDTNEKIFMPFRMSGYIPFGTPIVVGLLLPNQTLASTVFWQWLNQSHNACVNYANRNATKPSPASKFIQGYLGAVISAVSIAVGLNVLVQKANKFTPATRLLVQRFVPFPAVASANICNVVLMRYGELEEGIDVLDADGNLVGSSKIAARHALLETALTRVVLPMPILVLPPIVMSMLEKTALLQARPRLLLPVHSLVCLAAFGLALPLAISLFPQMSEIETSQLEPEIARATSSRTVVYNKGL", "test": "GST pull-down, LC-MS/MS"}, "[7]": {"target": "Tomm20_IPI:IPI00120715.1 (mouse) (UniProt Q9DCC8)", "sequence (Q9DCC8 whole entry)": "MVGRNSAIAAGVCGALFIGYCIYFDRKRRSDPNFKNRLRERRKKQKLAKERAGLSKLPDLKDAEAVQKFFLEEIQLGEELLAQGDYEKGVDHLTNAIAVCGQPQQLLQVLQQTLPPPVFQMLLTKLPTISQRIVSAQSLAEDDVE", "test": "GST pull-down, LC-MS/MS"}, "[8]": {"target": "Tuba4a_IPI:IPI00117350.1 (mouse) (UniProt P68368)", "sequence (P68368 whole entry)": "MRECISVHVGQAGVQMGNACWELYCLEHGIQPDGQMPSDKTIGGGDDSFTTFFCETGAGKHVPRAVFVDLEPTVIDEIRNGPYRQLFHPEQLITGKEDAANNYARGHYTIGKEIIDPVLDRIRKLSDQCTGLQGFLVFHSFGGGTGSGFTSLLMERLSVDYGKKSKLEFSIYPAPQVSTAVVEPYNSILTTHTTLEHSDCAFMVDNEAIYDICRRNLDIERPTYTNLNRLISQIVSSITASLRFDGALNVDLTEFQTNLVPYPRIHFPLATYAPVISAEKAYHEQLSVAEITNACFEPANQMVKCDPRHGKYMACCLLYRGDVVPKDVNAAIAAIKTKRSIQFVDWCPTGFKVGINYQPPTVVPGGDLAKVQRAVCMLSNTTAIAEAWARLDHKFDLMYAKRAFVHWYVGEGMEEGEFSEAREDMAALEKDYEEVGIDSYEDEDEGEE", "test": "GST pull-down, LC-MS/MS"}, "[9]": {"target": "mt-Co2_IPI:IPI00131176.1 (mouse) (UniProt P00405)", "sequence (P00405 whole entry)": "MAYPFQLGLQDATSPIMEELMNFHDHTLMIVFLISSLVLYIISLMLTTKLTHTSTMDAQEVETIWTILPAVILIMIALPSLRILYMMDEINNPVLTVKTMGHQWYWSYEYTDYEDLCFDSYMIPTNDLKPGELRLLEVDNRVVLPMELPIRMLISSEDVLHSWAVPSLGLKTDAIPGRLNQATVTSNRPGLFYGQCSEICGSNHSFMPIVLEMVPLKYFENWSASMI", "test": "GST pull-down, LC-MS/MS"}, "[10]": {"target": "Acadsb_IPI:IPI00119842.1 (mouse) (UniProt Q9DBL1)", "test": "GST pull-down, LC-MS/MS"}, "[11]": {"target": "Asah1_IPI:IPI00125266.1 (mouse) (UniProt Q9WV54)", "sequence (Q9WV54 19-394 limits assumed)": "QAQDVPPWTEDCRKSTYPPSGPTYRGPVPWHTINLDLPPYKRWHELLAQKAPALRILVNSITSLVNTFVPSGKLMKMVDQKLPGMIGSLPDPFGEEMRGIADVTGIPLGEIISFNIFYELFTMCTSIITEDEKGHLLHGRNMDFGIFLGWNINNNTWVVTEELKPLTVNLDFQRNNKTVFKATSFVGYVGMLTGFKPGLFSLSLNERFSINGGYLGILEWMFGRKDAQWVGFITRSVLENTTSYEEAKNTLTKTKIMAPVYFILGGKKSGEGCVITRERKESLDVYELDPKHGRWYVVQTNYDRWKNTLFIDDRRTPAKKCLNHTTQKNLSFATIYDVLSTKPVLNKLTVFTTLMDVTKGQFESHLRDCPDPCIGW", "test": "GST pull-down, LC-MS/MS"}, "[12]": {"target": "Coq5_IPI:IPI00379695.2 (mouse) (UniProt Q9CXI0)", "sequence (Q9CXI0 50-327 limits assumed)": "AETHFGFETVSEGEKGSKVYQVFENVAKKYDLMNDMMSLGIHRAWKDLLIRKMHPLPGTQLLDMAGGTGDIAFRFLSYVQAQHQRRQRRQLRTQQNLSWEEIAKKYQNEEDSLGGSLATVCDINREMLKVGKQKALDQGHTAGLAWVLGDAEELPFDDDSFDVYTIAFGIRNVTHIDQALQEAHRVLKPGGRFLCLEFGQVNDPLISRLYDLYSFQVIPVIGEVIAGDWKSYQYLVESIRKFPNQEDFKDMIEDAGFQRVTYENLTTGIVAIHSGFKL", "test": "GST pull-down, LC-MS/MS"}, "[13]": {"target": "Echs1_IPI:IPI00454049.4 (mouse) (UniProt Q8BH95)", "sequence (Q8BH95 28-290 limits assumed)": "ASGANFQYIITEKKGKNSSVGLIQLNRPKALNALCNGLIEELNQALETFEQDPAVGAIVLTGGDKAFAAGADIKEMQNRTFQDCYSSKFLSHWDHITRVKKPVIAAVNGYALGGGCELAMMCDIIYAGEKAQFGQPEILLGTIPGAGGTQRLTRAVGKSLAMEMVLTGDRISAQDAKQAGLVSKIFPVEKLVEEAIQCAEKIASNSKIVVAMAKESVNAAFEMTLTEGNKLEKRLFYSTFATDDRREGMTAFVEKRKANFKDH", "test": "GST pull-down, LC-MS/MS"}, "[14]": {"target": "Hmgcl_IPI:IPI00379694.4 (mouse) (UniProt P38060)", "test": "GST pull-down, LC-MS/MS"}, "[15]": {"target": "Mtch1_IPI:IPI00137173.1 (mouse) (UniProt Q791T5)", "sequence (Q791T5 whole entry)": "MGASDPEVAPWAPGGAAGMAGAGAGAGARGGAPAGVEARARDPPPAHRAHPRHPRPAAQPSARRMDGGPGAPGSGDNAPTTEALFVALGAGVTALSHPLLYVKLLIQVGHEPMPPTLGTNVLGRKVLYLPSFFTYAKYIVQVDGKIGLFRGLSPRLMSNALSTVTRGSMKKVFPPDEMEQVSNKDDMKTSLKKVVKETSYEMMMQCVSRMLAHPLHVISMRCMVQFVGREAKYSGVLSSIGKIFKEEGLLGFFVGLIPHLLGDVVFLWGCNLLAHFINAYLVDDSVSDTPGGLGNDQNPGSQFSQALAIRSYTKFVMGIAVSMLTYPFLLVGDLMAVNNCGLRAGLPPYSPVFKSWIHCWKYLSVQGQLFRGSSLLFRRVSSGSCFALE", "test": "GST pull-down, LC-MS/MS"}, "[16]": {"target": "Pycr2_IPI:IPI00123278.1 (mouse) (UniProt Q922Q4)", "sequence (Q922Q4 2-320 limits assumed)": "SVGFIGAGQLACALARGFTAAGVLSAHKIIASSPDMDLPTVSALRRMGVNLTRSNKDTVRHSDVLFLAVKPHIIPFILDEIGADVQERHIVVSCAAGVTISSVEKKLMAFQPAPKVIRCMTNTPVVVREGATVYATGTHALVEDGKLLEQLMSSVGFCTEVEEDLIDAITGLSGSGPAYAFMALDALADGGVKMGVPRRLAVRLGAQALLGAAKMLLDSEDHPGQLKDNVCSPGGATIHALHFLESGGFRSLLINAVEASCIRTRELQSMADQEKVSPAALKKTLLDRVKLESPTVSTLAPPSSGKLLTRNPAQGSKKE", "test": "GST pull-down, LC-MS/MS"}, "[17]": {"target": "Rdh13_IPI:IPI00229040.1 (mouse) (UniProt Q8CEE7)", "sequence (Q8CEE7 2-334 limits assumed)": "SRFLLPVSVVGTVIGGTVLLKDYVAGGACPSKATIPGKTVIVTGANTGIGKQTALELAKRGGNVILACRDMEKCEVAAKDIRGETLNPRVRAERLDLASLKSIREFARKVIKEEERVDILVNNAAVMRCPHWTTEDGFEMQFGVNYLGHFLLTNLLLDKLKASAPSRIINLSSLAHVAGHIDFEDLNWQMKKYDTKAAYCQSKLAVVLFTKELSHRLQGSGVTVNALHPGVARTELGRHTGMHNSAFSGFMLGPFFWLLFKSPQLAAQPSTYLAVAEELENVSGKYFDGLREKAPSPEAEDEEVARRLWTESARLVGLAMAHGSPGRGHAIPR", "test": "GST pull-down, LC-MS/MS"}, "[18]": {"target": "Tim17a (endogenous, mouse forebrain mitochondria) (mouse) (UniProt Q9Z0V8)", "sequence (Q9Z0V8 whole entry)": "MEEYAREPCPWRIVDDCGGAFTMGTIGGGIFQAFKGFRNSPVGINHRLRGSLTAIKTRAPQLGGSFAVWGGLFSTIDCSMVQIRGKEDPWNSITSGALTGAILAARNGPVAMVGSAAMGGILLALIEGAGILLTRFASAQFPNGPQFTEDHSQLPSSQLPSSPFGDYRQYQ", "test": "GST pull-down, LC-MS/MS"}, "[19]": {"target": "TIM23 complex (mitochondrial inner membrane translocase, mouse forebrain mitochondria) (mouse) (UniProt Q9WTQ8)", "test": "cell-based or functional assay"}},
  "data": [
    {"substance": "GST-Httex1-23Q (from UniProt P08515 1-218; P42858 1-88)", "values": [
      {"measurement": "No. of total peptides", "setting": "[1]", "value": 2, "unit": "peptides"},
      {"measurement": "No. of unique peptides", "setting": "[1]", "value": 2, "unit": "peptides"},
      {"measurement": "No. of total peptides", "setting": "[2]", "value": 3, "unit": "peptides"},
      {"measurement": "No. of unique peptides", "setting": "[2]", "value": 3, "unit": "peptides"},
      {"measurement": "No. of total peptides", "setting": "[3]", "value": 1, "unit": "peptides"},
      {"measurement": "No. of unique peptides", "setting": "[3]", "value": 1, "unit": "peptides"},
      {"measurement": "No. of total peptides", "setting": "[4]", "value": 1, "unit": "peptides"},
      {"measurement": "No. of unique peptides", "setting": "[4]", "value": 1, "unit": "peptides"},
      {"measurement": "No. of total peptides", "setting": "[5]", "value": 1, "unit": "peptides"},
      {"measurement": "No. of unique peptides", "setting": "[5]", "value": 1, "unit": "peptides"},
      {"measurement": "No. of total peptides", "setting": "[6]", "value": 3, "unit": "peptides"},
      {"measurement": "No. of unique peptides", "setting": "[6]", "value": 3, "unit": "peptides"},
      {"measurement": "No. of total peptides", "setting": "[7]", "value": 1, "unit": "peptides"},
      {"measurement": "No. of unique peptides", "setting": "[7]", "value": 1, "unit": "peptides"},
      {"measurement": "No. of total peptides", "setting": "[8]", "value": 3, "unit": "peptides"},
      {"measurement": "No. of unique peptides", "setting": "[8]", "value": 3, "unit": "peptides"},
      {"measurement": "No. of total peptides", "setting": "[9]", "value": 1, "unit": "peptides"},
      {"measurement": "No. of unique peptides", "setting": "[9]", "value": 1, "unit": "peptides"}
    ]},
    {"substance": "GST-Httex1-97Q (from UniProt P08515 1-218; P42858 1-88)", "values": [
      {"measurement": "No. of total peptides", "setting": "[10]", "value": 2, "unit": "peptides"},
      {"measurement": "No. of unique peptides", "setting": "[10]", "value": 2, "unit": "peptides"},
      {"measurement": "No. of total peptides", "setting": "[1]", "value": 2, "unit": "peptides"},
      {"measurement": "No. of unique peptides", "setting": "[1]", "value": 2, "unit": "peptides"},
      {"measurement": "No. of total peptides", "setting": "[11]", "value": 3, "unit": "peptides"},
      {"measurement": "No. of unique peptides", "setting": "[11]", "value": 3, "unit": "peptides"},
      {"measurement": "No. of total peptides", "setting": "[2]", "value": 5, "unit": "peptides"},
      {"measurement": "No. of unique peptides", "setting": "[2]", "value": 4, "unit": "peptides"},
      {"measurement": "No. of total peptides", "setting": "[12]", "value": 2, "unit": "peptides"},
      {"measurement": "No. of unique peptides", "setting": "[12]", "value": 2, "unit": "peptides"},
      {"measurement": "No. of total peptides", "setting": "[3]", "value": 6, "unit": "peptides"},
      {"measurement": "No. of unique peptides", "setting": "[3]", "value": 5, "unit": "peptides"},
      {"measurement": "No. of total peptides", "setting": "[13]", "value": 5, "unit": "peptides"},
      {"measurement": "No. of unique peptides", "setting": "[13]", "value": 5, "unit": "peptides"},
      {"measurement": "No. of total peptides", "setting": "[4]", "value": 1, "unit": "peptides"},
      {"measurement": "No. of unique peptides", "setting": "[4]", "value": 1, "unit": "peptides"},
      {"measurement": "No. of total peptides", "setting": "[14]", "value": 1, "unit": "peptides"},
      {"measurement": "No. of unique peptides", "setting": "[14]", "value": 1, "unit": "peptides"},
      {"measurement": "No. of total peptides", "setting": "[5]", "value": 1, "unit": "peptides"},
      {"measurement": "No. of unique peptides", "setting": "[5]", "value": 1, "unit": "peptides"},
      {"measurement": "No. of total peptides", "setting": "[15]", "value": 3, "unit": "peptides"},
      {"measurement": "No. of unique peptides", "setting": "[15]", "value": 3, "unit": "peptides"},
      {"measurement": "No. of total peptides", "setting": "[16]", "value": 1, "unit": "peptides"},
      {"measurement": "No. of unique peptides", "setting": "[16]", "value": 1, "unit": "peptides"},
      {"measurement": "No. of total peptides", "setting": "[17]", "value": 1, "unit": "peptides"},
      {"measurement": "No. of unique peptides", "setting": "[17]", "value": 1, "unit": "peptides"},
      {"measurement": "No. of total peptides", "setting": "[6]", "value": 6, "unit": "peptides"},
      {"measurement": "No. of unique peptides", "setting": "[6]", "value": 5, "unit": "peptides"},
      {"measurement": "No. of total peptides", "setting": "[18]", "value": 1, "unit": "peptides"},
      {"measurement": "No. of unique peptides", "setting": "[18]", "value": 1, "unit": "peptides"},
      {"measurement": "No. of total peptides", "setting": "[7]", "value": 1, "unit": "peptides"},
      {"measurement": "No. of unique peptides", "setting": "[7]", "value": 1, "unit": "peptides"},
      {"measurement": "No. of total peptides", "setting": "[8]", "value": 2, "unit": "peptides"},
      {"measurement": "No. of unique peptides", "setting": "[8]", "value": 2, "unit": "peptides"},
      {"measurement": "No. of total peptides", "setting": "[9]", "value": 4, "unit": "peptides"},
      {"measurement": "No. of unique peptides", "setting": "[9]", "value": 3, "unit": "peptides"},
      {"measurement": "reduction of pOTC import into wild-type mouse forebrain mitochondria after incubation with 3 µM GST-Httex1-97Q, compared to control GST", "setting": "[19]", "value": 50, "unit": "%"},
      {"measurement": "reduction of pOTC import into wild-type mouse forebrain mitochondria after incubation with 10 µM GST-Httex1-97Q, compared to control GST", "setting": "[19]", "value": 73, "unit": "%"}
    ]}
  ]
}
